# Results: publication PMC5514143, “A Drug Carrier for Sustained Zero-Order Release of Peptide Therapeutics” (Scientific Reports, 2017)
# What was measured:
# [1] = Circular dichroism of PEG-sCT released from the film; format: physicochemical; conditions: CD 190-260 nm, room temperature, 0.1 cm path cell; release media
# Procedure: UV-vis absorption spectra were recorded on a UV-1800 spectrophotometer (SHIMADZU, Japan). Fourier transform infrared (FTIR) spectra were measured on Bio-Rad FTS-6000 spectrometer. CD measurement was performed on a Biologic MOS-450 (Claix, France) at room temperature in a 0.1 cm path cell. The CD signals were recorded from 190 to 260 nm using a bandwidth of 4.0 nm and a scanning rate of 50 nm/min. SEM images were recorded on an FEI NanoSEM 430 Scanning Electron Microscope. Atomic force microscopy (AFM) images were acquired using a Benyuan CSPM5000s scanning probe microscope in tapping mode.
# [2] = administered via injection; cited from earlier work
# Excerpt: The key goal of a release system is to maintain the plasma drug concentration within the therapeutic window for a prolonged period of time. For zero-order release carriers, as the drug is released at constant rate, it will be possible to maintain the plasma drug concentration constant. This will avoid a plasma drug concentration which is too high to exert toxic effects, or too low to fail to exert therapeutic effects, and therefore lead to the best outcome. As expected, for rats with implanted PEG-sCT/TA films, the plasma concentration of PEG-sCT remains almost constant (Fig. 7A). When a 20 bi ...
substance,measurement,setting,value
PEGylated salmon calcitonin [PEG-sCT],secondary structure of PEG-sCT released from the film (CD spectra vs native drug),[1],remains unchanged
same,half-life of PEG-sCT,[2],~ 83 min
